Among the data in patent US6218527 are activity (fold over control vector) and activity (fold over background) values, retold here.

Data set [1] addresses T1, ABF1 (Arabidopsis thaliana) (UniProt Q9M7Q5).
T1 sequence: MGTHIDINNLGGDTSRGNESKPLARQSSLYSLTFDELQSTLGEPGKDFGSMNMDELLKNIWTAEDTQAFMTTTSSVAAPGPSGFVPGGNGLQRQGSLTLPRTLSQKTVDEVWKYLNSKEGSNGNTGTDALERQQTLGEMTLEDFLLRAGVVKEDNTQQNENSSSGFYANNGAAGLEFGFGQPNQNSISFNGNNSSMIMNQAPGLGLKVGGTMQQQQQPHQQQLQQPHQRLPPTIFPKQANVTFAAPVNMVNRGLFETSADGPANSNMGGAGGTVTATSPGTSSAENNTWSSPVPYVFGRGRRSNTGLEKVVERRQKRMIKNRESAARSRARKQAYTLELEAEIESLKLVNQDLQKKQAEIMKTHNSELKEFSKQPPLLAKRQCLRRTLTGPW
The data set can be described thus: one_hybrid.

The test system of data set [2] is ABF2 (Arabidopsis thaliana). The data set can be described thus: one_hybrid.

Consider Em1a trimer reporter, for which the activity (fold over control vector) in data set [1] was 6. Also, the activity (fold over background) in data set [2] was determined as 2.
